How the values were obtained:
[1] = biological target: T1, human c-Met (HGFR), full length, on the cell surface (human, UniProt P08581 25-1390); assay: flow cytometry, MKN45 cells, without HGF
T1 construct: Endogenous c-Met on human tumor cell lines MKN45, NCI-H596, PC-3 and HepG2; also called hepatocyte growth factor receptor; mesenchymal-epithelial transition factor
Procedure: (§1) Cellular binding of the in total 75 humanized anti-c-Met antibodies (originating from the three selected chimeric antibodies) was studied in human c-Met-positive tumor cell lines MKN45, NCI-H596 and PC-3, rhesus c-Met-positive tumor cell line 4 MBr-5, and human c-Met-negative tumor cell line MDA-MB-175-VII. Cells were used around 90% of confluence at the time of an assay, detached with Trypsin-Versene (EDTA) (Lonza) for 5-10 minutes, washed and adjusted to a concentration of 1×10⁶ cells/mL in ice-cold FACS buffer (PBS 1×, 0.1% v/w BSA, 0.02% v/v sodium azide (NaN₃)). Staining was performed in 96-well round-bottomed microtiter plates using ice-cold reagents/solutions at 4° C. to prevent the modulation and internalization of surface antigens. 100,000 cells/well were added to 96-well plates (100 μL/well) and centrifuged at 300×g for 3 minutes. In case of pre-incubation with HGF, the cells were resuspended in 50 ng/mL recombinant human HGF in FACS buffer (50 μL/well) and incubated for 30 minutes at 4° C., followed by two wash steps with 150 μL FACS buffer. Supernatant was discarded and cells were stained for 30 minutes with 50 μL of each antibody. Serial dilutions were made in ice-cold FACS buffer. Cells were washed twice by centrifugation at 300×g for 3 minutes and resuspended in 50 μL 6000-times diluted secondary F(ab′)₂ goat anti-human IgG (Fc fragment specific) antibody APC-conjugated (Jackson ImmunoResearch). Following a 30-minute incubation on ice, cells were washed again 2 times and resuspended in 150 μL ice-cold FACS buffer for FACS analysis. For analysis of the data, the Median Fluorescence Intensity (MFI) values were obtained.

[2] = biological target: T2, rhesus c-Met on 4MBr-5 cells (rhesus, UniProt F7H1K4 25-1381, Natural c-Met is cleaved at the furin site (KRKKR/S) into disulphide-linked alpha and beta subunits; given here as one mature polypeptide.); assay: flow cytometry, 4MBr-5 cells pre-incubated with 50 ng/mL HGF
T2 construct: also called rhesus c-Met antigen
T2 sequence (F7H1K4 entry or part of it limits assumed): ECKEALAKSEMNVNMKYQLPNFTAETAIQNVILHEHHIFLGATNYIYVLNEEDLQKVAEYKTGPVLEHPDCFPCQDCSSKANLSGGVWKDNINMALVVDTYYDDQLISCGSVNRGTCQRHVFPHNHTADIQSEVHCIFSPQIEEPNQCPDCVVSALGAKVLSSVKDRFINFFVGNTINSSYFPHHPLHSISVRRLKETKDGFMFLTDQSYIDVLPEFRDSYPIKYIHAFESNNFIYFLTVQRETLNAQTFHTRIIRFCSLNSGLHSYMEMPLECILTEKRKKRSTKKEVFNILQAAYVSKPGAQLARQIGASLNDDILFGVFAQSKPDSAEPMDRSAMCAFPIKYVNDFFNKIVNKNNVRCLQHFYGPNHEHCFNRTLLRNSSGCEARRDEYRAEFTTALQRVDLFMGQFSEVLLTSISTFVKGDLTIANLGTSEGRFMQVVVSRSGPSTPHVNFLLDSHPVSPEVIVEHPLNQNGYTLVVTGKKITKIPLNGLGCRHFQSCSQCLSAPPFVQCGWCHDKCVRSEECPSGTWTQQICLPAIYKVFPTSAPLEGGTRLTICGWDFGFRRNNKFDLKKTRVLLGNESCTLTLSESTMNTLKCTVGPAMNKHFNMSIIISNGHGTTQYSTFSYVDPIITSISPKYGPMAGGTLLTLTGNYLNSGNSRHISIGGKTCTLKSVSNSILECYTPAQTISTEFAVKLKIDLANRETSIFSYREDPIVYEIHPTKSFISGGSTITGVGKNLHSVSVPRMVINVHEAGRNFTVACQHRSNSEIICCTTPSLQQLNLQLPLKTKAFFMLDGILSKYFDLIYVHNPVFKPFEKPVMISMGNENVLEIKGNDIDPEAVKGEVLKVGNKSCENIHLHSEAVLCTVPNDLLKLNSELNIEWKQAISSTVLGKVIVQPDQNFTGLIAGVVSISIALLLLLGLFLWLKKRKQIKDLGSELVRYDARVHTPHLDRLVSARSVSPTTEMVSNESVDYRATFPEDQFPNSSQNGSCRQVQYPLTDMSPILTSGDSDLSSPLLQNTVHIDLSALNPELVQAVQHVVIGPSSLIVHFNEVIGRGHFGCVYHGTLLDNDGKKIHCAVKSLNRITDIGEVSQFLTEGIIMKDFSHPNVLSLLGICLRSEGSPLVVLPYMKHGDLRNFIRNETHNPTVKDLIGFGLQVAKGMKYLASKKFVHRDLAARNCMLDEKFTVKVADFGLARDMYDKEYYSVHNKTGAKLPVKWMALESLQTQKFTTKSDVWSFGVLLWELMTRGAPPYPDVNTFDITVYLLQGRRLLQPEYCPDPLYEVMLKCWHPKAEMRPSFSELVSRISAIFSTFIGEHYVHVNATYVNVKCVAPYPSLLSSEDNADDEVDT
Procedure: as §1

[3] = biological target: T2, rhesus c-Met on 4MBr-5 cells; assay: flow cytometry, 4MBr-5 cells; EC50 with 50 ng/mL HGF against EC50 without HGF
Procedure: as §1

[4] = biological target: T1, human c-Met (HGFR), full length, on the …; assay: flow cytometry, PC-3 cells pre-incubated with 50 ng/mL HGF
Procedure: as §1

[5] = biological target: T1, human c-Met (HGFR), full length, on the …; assay: flow cytometry, PC-3 cells; EC50 with 50 ng/mL HGF against EC50 without HGF
Procedure: as §1

[6] = biological target: T1, human c-Met (HGFR), full length, on the …; assay: flow cytometry, NCI-H596 cells; EC50 with 50 ng/mL HGF against EC50 without HGF
Procedure: as §1

[7] = biological target: T2, rhesus c-Met on 4MBr-5 cells; assay: flow cytometry, 4MBr-5 cells, without HGF
Procedure: as §1

[8] = biological target: T1, human c-Met (HGFR), full length, on the …; assay: flow cytometry, PC-3 cells, without HGF
Procedure: as §1

[9] = biological target: T1, human c-Met (HGFR), full length, on the …; assay: flow cytometry, NCI-H596 cells, without HGF
Procedure: as §1

[10] = biological target: T1, human c-Met (HGFR), full length, on the …; assay: flow cytometry, NCI-H596 cells pre-incubated with 50 ng/mL HGF
Procedure: as §1

[11] = biological target: T1, human c-Met (HGFR), full length, on the …; assay: cell-based or functional assay

T1 sequence (P08581 25-1390 limits assumed): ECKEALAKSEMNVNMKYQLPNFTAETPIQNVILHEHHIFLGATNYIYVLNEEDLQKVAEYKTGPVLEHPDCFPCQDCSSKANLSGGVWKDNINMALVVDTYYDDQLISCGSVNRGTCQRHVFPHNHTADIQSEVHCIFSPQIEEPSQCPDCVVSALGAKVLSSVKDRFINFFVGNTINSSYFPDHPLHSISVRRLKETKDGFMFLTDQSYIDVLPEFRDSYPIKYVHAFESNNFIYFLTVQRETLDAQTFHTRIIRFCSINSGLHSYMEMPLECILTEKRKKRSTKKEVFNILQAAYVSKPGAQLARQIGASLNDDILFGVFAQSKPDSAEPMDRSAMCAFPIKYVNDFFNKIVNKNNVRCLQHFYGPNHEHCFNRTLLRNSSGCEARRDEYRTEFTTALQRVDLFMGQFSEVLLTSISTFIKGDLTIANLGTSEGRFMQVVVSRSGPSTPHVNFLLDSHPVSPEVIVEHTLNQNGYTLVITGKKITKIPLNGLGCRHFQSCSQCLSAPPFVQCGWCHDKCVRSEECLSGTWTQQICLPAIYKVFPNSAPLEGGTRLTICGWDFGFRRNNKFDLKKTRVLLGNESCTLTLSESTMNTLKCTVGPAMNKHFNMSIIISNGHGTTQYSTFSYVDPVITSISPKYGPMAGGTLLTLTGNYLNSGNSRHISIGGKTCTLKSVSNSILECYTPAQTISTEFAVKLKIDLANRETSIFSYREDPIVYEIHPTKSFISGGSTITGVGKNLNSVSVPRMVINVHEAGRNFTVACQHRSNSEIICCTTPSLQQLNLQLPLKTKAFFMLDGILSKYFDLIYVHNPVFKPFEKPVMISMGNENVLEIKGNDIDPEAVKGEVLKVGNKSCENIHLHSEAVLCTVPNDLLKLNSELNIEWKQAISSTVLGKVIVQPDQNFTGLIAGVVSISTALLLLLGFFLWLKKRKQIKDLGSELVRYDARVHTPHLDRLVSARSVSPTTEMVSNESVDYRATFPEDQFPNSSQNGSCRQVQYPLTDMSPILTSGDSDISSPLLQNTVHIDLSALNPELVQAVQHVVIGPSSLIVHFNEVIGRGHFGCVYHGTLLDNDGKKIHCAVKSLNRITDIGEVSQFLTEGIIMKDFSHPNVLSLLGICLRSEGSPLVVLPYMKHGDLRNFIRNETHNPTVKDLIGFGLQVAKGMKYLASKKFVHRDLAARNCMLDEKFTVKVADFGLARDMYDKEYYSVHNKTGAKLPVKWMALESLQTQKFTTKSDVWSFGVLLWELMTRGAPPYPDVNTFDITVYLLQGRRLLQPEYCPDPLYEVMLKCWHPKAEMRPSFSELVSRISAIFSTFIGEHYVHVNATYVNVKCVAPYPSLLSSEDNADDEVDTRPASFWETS

Binder | EC50 [1] [µg/mL] | EC50 [2] [µg/mL] | Fold shift (HGF) [3] [fold] | EC50 [4] [µg/mL] | Fold shift (HGF) [5] [fold] | Fold shift (HGF) [6] [fold] | EC50 [7] [µg/mL] | EC50 [8] [µg/mL] | EC50 [9] [µg/mL] | EC50 [10] [µg/mL] | further results
mAb2c (antibody, human IgG1, kappa, V domains shown, Humanized IgG1 kappa, HC-41C, from wt/41C-chi-mAb2; also called humanized HC-41C antibody mAb2c) VH: QVQLVQSGAEVKKPGSSVKVSCKASGYVFPDYEMHWVRQACGQGLEWMGAFDPETGDTTYNQNFKGRVTITADKSTSTAYMELSSLRSEDTAVYYCARDYKYLYYYAMDNWGQGTTVTVSS VL: EIVLTQSPSLLSASIGDRVTIPCTASSSITSSYLHWYQQKPGKAPKLLIYSTTNLASGVPSRFSGSGSGTEFTLTISSLQPEDFATYYCHQYRRSPLTFGGGTKLEIKR | 0.11 | 0.09 | 1.2 | 0.09 | 3.1 | 3.3 | 0.07 | 0.03 | 0.03 | 0.1 | 
mAb2a (antibody, human IgG1, kappa, V domains shown, Humanized IgG1 kappa, HC-41C, from wt/41C-chi-mAb2; also called humanized HC-41C antibody mAb2a) VH: QVQLVQSGAELRKPGSSVKVSCRASGYVFPDYEMHWVRQACGQGLEWMGAFDPETGDTTYNQNFKGRVTIAADKSTSTAYMELRSLRSEDTAIYYCARDYKYLYYYAMDNWGQGTMVTVSS VL: EIVLTQSPSLLSASIGDRVTIPCTASSSITSSYLHWYQQKPGKAPKLLIYSTTNLASGVPSRFSGSGSGTEFTLTISSLQPEDFATYYCHQYRRSPLTFGGGTKLEIKR | 0.09 | 0.09 | 1.4 | 0.09 | 2.3 | 4 | 0.06 | 0.04 | 0.02 | 0.08 | 
mAb2b (antibody, human IgG1, kappa, V domains shown, Humanized IgG1 kappa, HC-41C, from wt/41C-chi-mAb2; also called humanized HC-41C antibody mAb2b) VH: QVQLVQSGAEVKKPGSSVKVSCKASGYVFPDYEMHWVRQACGQGLEWMGAFDPETGDTTYNQNFKGRVTITADKSTSTAYMELSSLRSEDTAVYYCARDYKYLYYYAMDNWGQGTTVTVSS VL: DIQMTQSPSSLSASVGDRVTITCTASSSITSSYLHWYQQKPGKAPKLLIYSTTNLASGVPSRFSGSGSGTDFTLTISSLQPEDFATYYCHQYRRSPLTFGGGTKLEIKR | 0.14 | 0.15 | 1.7 | 0.13 | 2.6 | 2.8 | 0.09 | 0.05 | 0.04 | 0.11 | 
ADC1a (antibody, human IgG1, kappa, V domains shown, vc-seco-DUBA linker-drug on the engineered cysteine at HC position 41 (Kabat); DAR 1.7) VH: QVQLVQSGAEVKKPGASVKVSCKASGYIFTDYFMNWVRQACGQGLEWMGRVNPKNGDITYNQKFRGRVSLTKDTSINTAYMELSGLTSDDTAIYYCAYDGYYDGMDFWGQGTSVTVSS VL: ELVMTQSPSSLSASVGDRVTITCRANSSVSSNFLHWYQQKPGKAPKLLISSTSNLAFGVPSRFSGTGSGTDFSLTISSLQPEDFAIYYCHQYSGHPFTFGQGTKLEIKR |  |  |  |  |  |  |  |  |  |  | Efficacy (%), in vitro cytotoxicity, MKN-45, -HGF [11]: 84%; Efficacy (%), in vitro cytotoxicity, NCI-H596, +HGF [11]: 40%; Efficacy (%), in vitro cytotoxicity, NCI-H596, -HGF [11]: 14%; Efficacy (%), in vitro cytotoxicity, PC-3, +HGF [11]: 77%; Efficacy (%), in vitro cytotoxicity, PC-3, -HGF [11]: 78%; IC50 1, in vitro cytotoxicity, PC-3, -HGF [11]: 0.6 nM; IC50 2, in vitro cytotoxicity, PC-3, -HGF [11]: 224 nM; IC50, in vitro cytotoxicity, MKN-45, -HGF [11]: 0.42 nM; IC50, in vitro cytotoxicity, NCI-H596, +HGF [11]: > 10 nM; IC50, in vitro cytotoxicity, NCI-H596, -HGF [11]: > 10 nM; IC50, in vitro cytotoxicity, PC-3, +HGF [11]: ~1.22 nM
mAb1a (antibody, human IgG1, kappa, V domains shown, Humanized IgG1 kappa, HC-41C, from wt/41C-chi-mAb1; also called humanized HC-41C antibody mAb1a; mAbla) VH: QVQLVQSGAEVKKPGASVKVSCKASGYIFTDYFMNWVRQACGQGLEWMGRVNPKNGDITYNQKFRGRVSLTKDTSINTAYMELSGLTSDDTAIYYCAYDGYYDGMDFWGQGTSVTVSS VL: ELVMTQSPSSLSASVGDRVTITCRANSSVSSNFLHWYQQKPGKAPKLLISSTSNLAFGVPSRFSGTGSGTDFSLTISSLQPEDFAIYYCHQYSGHPFTFGQGTKLEIKR | 0.16 | 0.08 | 1.1 | 0.15 | 1.9 | 2.5 | 0.07 | 0.08 | 0.04 | 0.1 | 
